According to paper PMC8809517, “Cofactor-independent RNA editing by a synthetic S-type PPR protein”:
Changes are numbered by the printed parent chain.

Tests used:
Assay in all cases: high-throughput RNA pulldown from lysate on Ni-NTA beads; HRP: 50 mM Tris pH 8, 150 mM NaCl, 1 mM beta-mercaptoethanol, 50 ug/ml BSA, 3 ug/ml yeast RNA, 0.5% heparin; ITC and FP: Tris pH 8, 200 mM KCl, 5% glycerol; MST: 50 mM Tris pH 8, 200 mM NaCl, 1 mM DTT, BSA, heparin, 0.05% Tween 20
Conditions in all cases: tags: N-terminal His-eGFP
[1] = target: T1, GFP-9S library array, motif 4 ND N98G;D124T (synthetic construct, N98G;D124T)
T1 chain: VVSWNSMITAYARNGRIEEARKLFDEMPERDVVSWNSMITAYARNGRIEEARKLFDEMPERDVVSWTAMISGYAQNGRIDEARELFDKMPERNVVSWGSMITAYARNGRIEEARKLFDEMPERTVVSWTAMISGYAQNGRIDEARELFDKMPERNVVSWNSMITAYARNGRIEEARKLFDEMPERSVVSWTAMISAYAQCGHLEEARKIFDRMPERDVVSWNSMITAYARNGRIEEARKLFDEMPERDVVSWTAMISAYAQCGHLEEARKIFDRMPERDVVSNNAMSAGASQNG

[2] = target: T2, GFP-9S library array, motif 4 ND N98Q;D124L (synthetic construct, N98Q;D124L)
T2 chain: T1 chain with G98Q, T124L

[3] = target: T3, GFP-9S library array, motif 4 ND N98K;D124I (synthetic construct, N98K;D124I)
T3 chain: T1 chain with G98K, T124I

[4] = target: T4, GFP-9S library array, motif 4 ND N98Y;D124H (synthetic construct, N98Y;D124H)
T4 chain: T1 chain with G98Y, T124H

[5] = target: T5, GFP-9S library array, motif 4 ND N98T;D124E (synthetic construct, N98T;D124E)
T5 chain: T1 chain with G98T, T124E

| Binder | Kd ([1]; label: 5' Cy5) [nM] | Kd ([2]; label: 5' Cy5) [nM] | Kd ([3]; label: 5' Cy5) [nM] | Kd ([4]; label: 5' Cy5) [nM] | Kd ([5]; label: 5' Cy5) [nM] | Kd ([1]; label: 5' IRDye 800CW) [nM] | Kd ([2]; label: 5' IRDye 800CW) [nM] | Kd ([3]; label: 5' IRDye 800CW) [nM] | Kd ([4]; label: 5' IRDye 800CW) [nM] | Kd ([5]; label: 5' IRDye 800CW) [nM] |
| --- | --- | --- | --- | --- | --- | --- | --- | --- | --- | --- |
| AUUAGACGUGA (ssRNA) [Cy5-rpoA-G] | 436 | 84.1 | 167 | 46 | 13.2 | – | – | – | – | – |
| AUUAUACGUGA (ssRNA) [IR-rpoA-U] | – | – | – | – | – | 236 | 261 | 252 | 169 | 134 |
| AUUACACGUGA (ssRNA) [Cy5-rpoA] | 169 | 122 | 130 | 5.06 | 258 | – | – | – | – | – |
| AUUAAACGUGA (ssRNA) [IR-rpoA-A] | – | – | – | – | – | 108 | 155 | 560 | 111 | 185 |
